Here are results for 17 molecules from patent US20200399381A1 (I MAB BIOPHARMA US, published 2020).

In experiment [1] the target is T1, recombinant His-tagged human IFNAR-1-ECD protein (human, UniProt P17181 28-436).
T1 construct: extracellular domain; the Biacore text says His-tagged human IFNAR-1-ECD; also called His-tagged IFNAR-1; hIFNAR-1 protein; not shown: His tag
T1 sequence (looked up): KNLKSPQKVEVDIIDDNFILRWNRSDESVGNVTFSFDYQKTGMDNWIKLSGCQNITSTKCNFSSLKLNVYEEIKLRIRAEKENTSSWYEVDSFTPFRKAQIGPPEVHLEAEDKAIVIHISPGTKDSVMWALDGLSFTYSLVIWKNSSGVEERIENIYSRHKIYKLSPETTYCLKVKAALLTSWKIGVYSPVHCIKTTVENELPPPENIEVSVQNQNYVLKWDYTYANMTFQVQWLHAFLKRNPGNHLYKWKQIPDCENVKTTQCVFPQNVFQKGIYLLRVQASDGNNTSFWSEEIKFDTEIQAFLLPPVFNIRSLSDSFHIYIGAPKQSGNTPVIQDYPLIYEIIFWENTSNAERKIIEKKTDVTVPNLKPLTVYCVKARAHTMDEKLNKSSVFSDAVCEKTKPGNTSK
As to the kind of experiment: ELISA, coated His-tagged IFNAR-1. Here is the method: This example tested the binding properties of the anti-IFNAR-1 mouse antibodies to the human IFNAR-1 proteins by ELISA assay. In short, His-tagged IFNAR-1 was coated at 0.5 μg/ml overnight and then blocked by 5% BSA in PBS. Serial diluted anti-IFNAR-1 antibodies were incubated with the coated antigen for 1 h at room temperature. The resulting plates were washed with PBS/T and incubated with goat anti-mouse IgG-HRP for 1 h at room temperature. The plates were developed with TMB substrate and analyzed by spectrophotometer at OD 450-630 nm.

Experiment [2] addresses T2, human IFNAR-1 on cells (human, UniProt P17181 28-557).
T2 sequence (looked up): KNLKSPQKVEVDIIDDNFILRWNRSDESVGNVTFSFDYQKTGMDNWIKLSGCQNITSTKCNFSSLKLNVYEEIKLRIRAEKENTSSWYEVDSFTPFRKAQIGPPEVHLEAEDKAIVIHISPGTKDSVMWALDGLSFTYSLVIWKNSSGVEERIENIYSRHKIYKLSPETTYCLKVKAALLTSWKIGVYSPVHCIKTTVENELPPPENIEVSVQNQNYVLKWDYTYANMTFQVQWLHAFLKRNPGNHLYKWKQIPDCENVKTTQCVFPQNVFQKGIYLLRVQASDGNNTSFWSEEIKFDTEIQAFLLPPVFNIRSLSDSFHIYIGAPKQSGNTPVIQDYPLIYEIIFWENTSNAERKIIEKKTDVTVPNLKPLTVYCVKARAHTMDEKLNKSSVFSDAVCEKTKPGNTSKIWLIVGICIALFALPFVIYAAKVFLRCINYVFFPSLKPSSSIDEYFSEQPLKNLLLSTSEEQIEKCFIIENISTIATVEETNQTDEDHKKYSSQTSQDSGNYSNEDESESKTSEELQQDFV
As to the kind of experiment: cell-based or functional assay.

The target in experiment [3] is T3, human IFNAR-1 protein (form not stated) (human, UniProt P17181 28-436, limits assumed).
T3 construct: bispecific ELISA
T3 sequence (looked up): T1 sequence (looked up)
Nature of the experiment: affinity ranking of expressed humanized 485G10 IgGs (method not named).

In experiment [4] the target is T3, human IFNAR-1 protein (form not stated). Nature of the experiment: affinity measurement of purified IgG at different concentrations (method not named).

Residue numbers refer to the chain shown, from its start.

B1: 487E3 (antibody, V domains shown)
VH: EVQLQQSGAELVKPGASVKLSCSASGFNIKDCYIHWVKQRTEQGLEWIGRIDPEDGETKYAPKFQAKATITADTSSNTAYLQLNSLTSEDTAVYYCARHCNFLYFDYWGQGSTLTVS
VL: DIVMTQSQKSMSTSLGDRVTVTCKASQNVGTIVAWYQLKPGQSPKTLIYSASYRSSGVPDRFTGSGSGTDFTLTISNVQSEDLAEYFCQQYNNYPVIFGSGTKLEIR
notes: Hybridoma-derived monoclonal antibody
For B1, the EC50 in experiment [1] is 0.028 nM. Besides, the “EC50 (nM), inhibition of IFNα2b-induced SEAP reporter in HEK-Blue IFNα/β cells” value (from here on “EC50 (nM), inhibition”) in experiment [2] was 0.161 nM.

B2: 106A7 (antibody, V domains shown)
VH: EVQLQQSGADLVKPGASVKLSCTTSGFNIKDYYMHWVNQRTEQGLEWIGRIDPEDGETKYAPKFQGKATITADTSSNTAYLQLSSLTSEDTAVYYCARDWGHSFDYWGQGTTLTVSS
VL: DIVMTQSQKFMSTSVGDRVSVTCKASQNVGTTVAWYQQKPGQSPKTLIYSASYRYSGVPDRFTGSGSGTDFTLTISNVQSEDLAEYFCQQYNSYTFGGGTKLEMK
notes: as for B1
On to B2, for which the EC50 in experiment [1] was 0.099 nM. For the same molecule, in experiment [2], the “EC50 (nM), inhibition” value is 3.52 nM.

B3: 402G3 (antibody, V domains shown)
VH: QVQLQQSGAELVKPGSSVKISCKASGFTFTSHFIHWIKQQPGNGLKWIGWIYPGDDDTEYNHKFNGKATLTADKSSSTAYMHLSSLTSEDSAVYFCARRVEYYNGGFAYWGQGTLVTVSS
VL: DVQMTQSPSYLAAPPGESVSISCKASKNIRNNLGWYQERPGKTPNLLIHSGSTLQSGAPSRFSGGGSGTDFTLTIRSLESEDSAVYYCQQYDQYPLTFGSGTKLEIK
notes: as for B1
Consider B3, for which the EC50 in experiment [1] came to 0.137 nM. For the same molecule, in experiment [2], the “EC50 (nM), inhibition” value is 1.27 nM.

B4: 485G10-H1L3 (antibody, V domains shown)
VH: QVQLVQSGAEVKKPGASVKVSCKASGFNIKDYYIHWVRQAPGQGLEWMGRIDPEDAETKYAPKFQGRVTMTADTSISTAYMELSRLRSDDTVVYYCARYHGYWALDYWGQGTLVTVSS
VL: DIQMTQSPSSLSTSVGDRVTITCKTSQNVGTNVAWYQQKPGKAPKPLIYSTSYRYSGVPSRFSGSGSGTDFTLTISSVQPEDFATYYCHQYFSYPYTFGPGTKLDIK
notes: Humanized IgG expressed in HEK293; also called VH1 + VL3 (485G10)
In the case of B4, in experiment [3], the dissociation constant (Kd) was determined as 0.325 nM, the koff is 0.000101 s⁻¹ and the association rate constant (kon) is 311000 M⁻¹ s⁻¹. Further, in experiment [4], binding was put at a Kd of 1.24 nM, the koff turned out to be 0.000232 s⁻¹ and the association rate constant (kon) is 187000 M⁻¹ s⁻¹.

B5: 485G10-H1L2 (antibody, V domains shown)
VH: B4 VH
VL: B4 VL with V78L, L104V
notes: Humanized IgG expressed in HEK293; also called VH1 + VL2 (485G10)
As for B5, in experiment [3], binding was put at a Kd of 0.652 nM, the koff is 0.000201 s⁻¹ and the kon is 308000 M⁻¹ s⁻¹. Besides, in experiment [4], binding was put at a Kd of 1.55 nM, the koff worked out at 0.000321 s⁻¹ and the kon turned out to be 207000 M⁻¹ s⁻¹.

B6: 485G10-H1L4 (antibody, V domains shown)
VH: B4 VH
VL: B4 VL with I21V
notes: Humanized IgG expressed in HEK293; also called VH1 + VL4 (485G10)
In experiment [3], B6 had a Kd of 0.66 nM, a koff of 0.000216 s⁻¹ and a kon of 327000 M⁻¹ s⁻¹. Besides, in experiment [4], binding was characterised by a dissociation constant (Kd) of 1.32 nM, the koff amounted to 0.000259 s⁻¹ and the kon worked out at 196000 M⁻¹ s⁻¹.

B7: 260H8 (antibody, V domains shown)
VH: EVQLQESGPGLAKPSQTLSLTCSVTGYSITSDYWNWIRKFPGNKLEYMGYISYSGSIYYNPSLKSRISITRDTSKNQYYLQLNSVTNEDTATYYCARSGGMYYFDYWGQGTTLTVSS
VL: DIQMTQSPASLSASVGETVTITCRASGNIHNYLAWYQQKQGKSPQLLVYNAKTLEDGVPSRFSGSGSGTQYSLKINSLQPEDFGSYYCQHFWSIPPTFGSGTKLEIK
notes: as for B1
Take B7: the 50% effective concentration (EC50) in experiment [1] is 0.055 nM. The “EC50 (nM), inhibition” value in experiment [2] was determined as 5.07 nM.

B8: 268E9 (antibody, V domains shown)
VH: B7 VH with D72A
VL: B7 VL
notes: as for B1
On to B8, for which the EC50 in experiment [1] was determined as 0.088 nM. In experiment [2], the “EC50 (nM), inhibition” value was 3.87 nM.

B9: 269A7 (antibody, V domains shown)
VH: B7 VH with S56T
VL: B7 VL
notes: as for B1
Consider B9, for which the EC50 in experiment [1] was 0.476 nM. Moreover, the “EC50 (nM), inhibition” value in experiment [2] is 6.71 nM.

B10: 293H10 (antibody, V domains shown)
VH: B7 VH with S56N, I57T, Y58D, I67F, Y78F, N87T, G99E, Y103F
VL: B7 VL with T20S, Q37H, E55A, I94T
notes: as for B1
As for B10, the EC50 in experiment [1] stood at 0.097 nM. The “EC50 (nM), inhibition” value in experiment [2] came out at 1.28 nM.

B11: 370E5 (antibody, V domains shown)
VH: EVQLQQSGAELVKPGASVKLSCTASGFNIKDYYIHWVKQRTEQGLEWIGRIDPEDGETKYAPKFQGKATITADTSSNTAYLQLSSLTSEDTAVYYCARFGGLTAMDYWGQGTSVTVSS
VL: DIVMTQSQKFMSTSVGDRVSVTCKASQNVGTNVAWYQQKPGQSPKALIYATSYRYSGVPDRFTGSGSGTDFTLTISNVQSEDLAEYFCQQYNNYPYTFGGGTKLEIK
notes: as for B1
For B11, the EC50 in experiment [1] was 0.052 nM. Further, the “EC50 (nM), inhibition” value in experiment [2] came to 2.17 nM.

B12: 107E12 (antibody, V domains shown)
VH: EVQLQQSGAEFVKPGASVKLSCTASGFNIKDYYIHWVTQKTEQGLEWIGRIDPEDGETKYAPKFQDKATITADSSSNTAYLQLSSLTSVDTAVYFCSREGSFTGWFPYWGQGTLVSVSA
VL: B11 VL with S26R, N28S, N32Y, A50S, S56N, E85D, N92H, N93S
notes: as for B1
As to B12, in experiment [1], the EC50 is 0.075 nM. In experiment [2], the “EC50 (nM), inhibition” value is 1.21 nM.

B13: 485G10 (antibody, V domains shown)
VH: B11 VH with A24G, A92V, A97G, F99Y, G100H, L102Y, T103W, M105L
VL: B11 VL with A25T, A46P, A50S, T74I, Q89H, N92F, N93S, K103L
notes: Hybridoma-derived monoclonal antibody; also called mouse antibody 485G10
For B13, the EC50 in experiment [1] was 0.015 nM. For the same molecule, the “EC50 (nM), inhibition” value in experiment [2] was determined as 0.286 nM.

B14: 392D6 (antibody, V domains shown)
VH: B11 VH with E1A, A9T, T23S, I34V, R40K, I70V, L81M, A97T, T103D
VL: B11 VL with A46P, A50S, S56N, D70E, Y91F, N93R
notes: as for B1
Consider B14, for which the half-maximal effective concentration (EC50) in experiment [1] came out at 0.054 nM. Also, the “EC50 (nM), inhibition” value in experiment [2] was found to be 0.824 nM.

B15: 104A3 (antibody, V domains shown)
VH: EVQLQQSGAELVKPGASVKVSCTGSGFNIKDYYIHWVKQRTEQGLEWIGRIDPEDGETKYAPKFQGKATITSDTSSNTAYLQLSSLTSGDTAVYFCARYDGYYCFDYWGQGTTLTVSS
VL: B11 VL with A46P, A50S, E81A, E85A, K103R
notes: as for B1
With B15, in experiment [1], the EC50 came out at 0.056 nM. The “EC50 (nM), inhibition” value in experiment [2] is 1.31 nM.

B16: 124D12 (antibody, V domains shown)
VH: B15 VH with K67R, F95Y
VL: B11 VL with A46P, A50S, E81A, E85A, K103R
notes: as for B1
With B16, in experiment [1], the EC50 is 0.062 nM. The “EC50 (nM), inhibition” value in experiment [2] worked out at 0.981 nM.

B17: 430H6 (antibody, V domains shown)
VH: QVTLKESGPGILQPSQTLSLTCTFSGFSLNTYGMGVGWIRQPSGKGLEWLANIWWDDDKYYNPSLKNRLTISKDTSNNQAFLKITNVDTADTATYFCARHPLPGYKDNYVVDAWGQGASVTVSS
VL: DVVLTQTPGSLSVTLGDQASISCRSSQSLEYSDQYTYLEWYLQKSGQSPQLLIYGVSNRFSGVPDRFIGSGSGTDFTLKISRVEPEDLGVYYCFQATHDPYTFGAGTKLELK
notes: as for B1
As for B17, the EC50 in experiment [1] turned out to be 0.733 nM. Also, the “EC50 (nM), inhibition” value in experiment [2] is 1.3 nM.
